For assay [1], the target named is T1, MERS-CoV (SARS-CoV-2) Spike Protein S2 (aa 726-1296, His Tag) (Sino 40070-[change]) (MERS-CoV, UniProt K9N5Q8 726-1296).
T1 sequence: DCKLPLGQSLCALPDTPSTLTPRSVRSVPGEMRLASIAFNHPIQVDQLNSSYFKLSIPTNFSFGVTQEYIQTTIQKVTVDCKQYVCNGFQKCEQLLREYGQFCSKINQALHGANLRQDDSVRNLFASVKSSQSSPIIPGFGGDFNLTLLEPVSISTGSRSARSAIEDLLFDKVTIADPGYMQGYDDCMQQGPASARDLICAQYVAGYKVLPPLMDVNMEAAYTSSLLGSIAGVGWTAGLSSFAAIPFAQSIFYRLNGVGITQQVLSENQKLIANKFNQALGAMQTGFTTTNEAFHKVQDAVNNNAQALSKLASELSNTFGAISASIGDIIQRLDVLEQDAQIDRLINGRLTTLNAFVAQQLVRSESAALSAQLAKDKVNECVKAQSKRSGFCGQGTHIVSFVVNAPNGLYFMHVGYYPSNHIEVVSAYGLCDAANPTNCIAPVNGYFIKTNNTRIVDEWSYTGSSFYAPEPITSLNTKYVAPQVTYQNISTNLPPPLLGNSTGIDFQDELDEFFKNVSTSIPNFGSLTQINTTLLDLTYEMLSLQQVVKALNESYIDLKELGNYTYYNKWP
In words: Luminex bead assay, supernatant on antigen microspheres.

The target in assay [2] is T2, MERS-CoV (SARS-CoV-2) Spike Protein (ECD, aa 1-1297, His Tag) (Sino 40069-[change]) (MERS-CoV, UniProt K9N5Q8 18-1297).
T2 sequence: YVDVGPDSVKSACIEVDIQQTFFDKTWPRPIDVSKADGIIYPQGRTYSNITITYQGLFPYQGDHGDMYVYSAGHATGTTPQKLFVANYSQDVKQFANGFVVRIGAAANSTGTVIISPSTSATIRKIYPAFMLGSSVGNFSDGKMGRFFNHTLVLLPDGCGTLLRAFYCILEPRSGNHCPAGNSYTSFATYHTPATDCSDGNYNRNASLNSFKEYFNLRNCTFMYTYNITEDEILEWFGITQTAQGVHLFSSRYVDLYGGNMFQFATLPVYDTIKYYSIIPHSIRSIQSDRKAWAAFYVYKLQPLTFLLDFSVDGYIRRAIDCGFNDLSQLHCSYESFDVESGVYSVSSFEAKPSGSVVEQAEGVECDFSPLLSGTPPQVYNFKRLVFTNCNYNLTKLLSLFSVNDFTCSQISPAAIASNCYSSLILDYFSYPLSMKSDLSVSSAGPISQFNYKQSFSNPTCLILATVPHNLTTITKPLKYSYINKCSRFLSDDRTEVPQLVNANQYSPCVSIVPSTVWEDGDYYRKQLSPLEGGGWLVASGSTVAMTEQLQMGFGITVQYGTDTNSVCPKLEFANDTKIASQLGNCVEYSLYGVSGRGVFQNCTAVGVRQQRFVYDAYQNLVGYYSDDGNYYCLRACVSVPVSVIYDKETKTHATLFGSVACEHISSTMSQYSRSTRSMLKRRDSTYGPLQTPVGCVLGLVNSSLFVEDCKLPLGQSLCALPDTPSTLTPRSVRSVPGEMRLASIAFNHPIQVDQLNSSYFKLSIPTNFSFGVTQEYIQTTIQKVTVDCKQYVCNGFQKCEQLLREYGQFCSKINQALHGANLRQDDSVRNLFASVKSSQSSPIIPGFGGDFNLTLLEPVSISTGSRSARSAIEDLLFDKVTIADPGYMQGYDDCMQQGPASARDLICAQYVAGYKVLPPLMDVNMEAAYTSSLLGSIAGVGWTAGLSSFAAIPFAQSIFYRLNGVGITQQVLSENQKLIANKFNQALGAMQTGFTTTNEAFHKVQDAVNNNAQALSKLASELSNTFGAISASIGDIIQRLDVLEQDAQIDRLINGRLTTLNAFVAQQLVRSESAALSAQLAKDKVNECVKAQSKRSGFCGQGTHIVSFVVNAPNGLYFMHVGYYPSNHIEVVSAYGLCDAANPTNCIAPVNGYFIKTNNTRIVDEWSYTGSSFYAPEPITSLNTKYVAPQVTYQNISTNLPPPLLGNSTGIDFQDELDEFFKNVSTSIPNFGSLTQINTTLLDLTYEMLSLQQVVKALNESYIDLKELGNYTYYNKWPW
In words: Luminex bead binding, antigen on microspheres, antibody supernatant.

In assay [3] the target is Human SARS Coronavirus Spike S1 Subunit Protein (His Tag) (Sino 40150-V08B1) (Human SARS Coronavirus, UniProt P59594 14-667). The assay is described as above.
The target of assay [4] is T3, MERS-CoV (SARS-CoV-2) Spike Protein S2 (aa 726-1296, His Tag) (Sino 40070-[change]) (MERS-CoV, UniProt K9N5Q8 726-1296).
T3 sequence: T1 sequence
Described as above.

For assay [5], the target named is T4, MERS-CoV (SARS-CoV-2) Spike Protein (ECD, aa 1-1297, His Tag) (Sino 40069-[change]) (MERS-CoV, UniProt K9N5Q8 18-1297).
T4 sequence: T2 sequence
Nature of the assay: Luminex bead assay, supernatant on antigen microspheres.

Assay [6] addresses SARS-CoV-2 spike protein (S-wt, Wuhan-Hu-1, NCBI Accession Number MN908947.3) on VSV-SARS-CoV-2-S … (SARS-CoV-2, UniProt P0DTC2 14-1273). Nature of the assay: cell-based or functional assay.

Positions count from the first letter of the chain named.

B1: mAb10915 (antibody, V domains shown)
VH: EVQLVESGGGLVQPGGSLRLSCAASGFTVSSNYMNWVRQAPGKGLEWVSVIYSGGSTFYADSVKGRFTISRHNSKNTLYLQMNSLRPEDTAVYYCARDLGGYFDYWGQGTLVTVSS
VL: not shown
For B1, the “Binding signal (MFI)” value in assay [1] was determined as 23 MFI.

B2: mAb10955 (antibody, V domains shown)
VH: EVQLVESGGGLVQPGGSLRVSCAASGFTVSRNYMSWVRQAPGKGLEWVSVIYSGGSTFYADSVKGRFTISRDNSKNTLYLQMNSLRAEDTAIYYCARYIPRFDPWGQGTLVTVSS
VL: DIQMTQSPSSLSASVGDRVTITCQASQDISNYLNWFQQKPGRAPKLLIYDASNLETGVPSRFSGSGSGTDFTFTISSLQPEDIATYYCQQYDNLPITFGQGTRLEIKR
Consider B2, for which the values for the MFI in assay [2], in assay [3] and in assay [4] were 15 MFI, 14 MFI and 18 MFI, respectively.

B3: mAb10934 (antibody, V domains shown)
VH: not shown
VL: B2 VL with S30W, L33I, F36Y, R42K, E55K, Y91H, N93D, I96P, R103K, L104V
As to B3, the “Binding signal (MFI)” value in assay [5] was determined as 15 MFI.

B4: mAb10933 (antibody, V domains shown)
VH: QVQLVESGGGLVKPGGSLRLSCAASGFTFSDYYMSWIRQAPGKGLEWVSYITYSGSTIYYADSVKGRFTISRDNAKSSLYLQMNSLRAEDTAVYYCARDRGTTMVPFDYWGQGTLVTVSS
VL: B2 VL with S30T, F36Y, R42K, D50A, S77G, I96L, Q100G, R103K, L104V
On to B4, for which the “Binding signal (MFI)” value in assay [1] came to 19 MFI.

B5: mAb10913 (antibody, V domains shown)
VH: EVQLVESGGGLVQPGGSLRLSCAASGFTFRNYEMNWVRQAPGKGLEWVSYITSSGSTMYYADSVKGRFTISRDNAKNSLYLQMNSLRAEDTAVYYCARDGFYYYYAMDVWGQGTTVTVSS
VL: QSVLTQPPSVSAAPGQKVTISCSGSSSNIGNNYVSWYQQLPGTAPKLLIYDNNKRPSGIPDRFSGSKSGTSATLGITGLQTGDEADYYCGTWDSSLSVGRVFGTGTKVTVLG
Turning to B5, the “Binding signal (MFI)” value turned out to be 20 MFI in assay [5] and 26 MFI in assay [1].

B6: mAb10986 (antibody, V domains shown)
VH: EVQLVESGGGLVQPGGSLRLSCAASEFTVSSNYMSWVRQAPGKGLEWVSVIYSGGSTFYADSVKGRFTISRDNSKNTLYLQMNSLRAEDTAVYYCARALPYGDLHFDYWGQGTLVTVSS
VL: QSVLTQPPSVSGAPGQRVTISCTGSSSNIGTGYDVHWYQQLPGTAPKLLIYGNTNRPSGVPDRFSGSKSGTSASLAITGLQAEDEADYYCQSYDSSLSDSYVFGTGTKVTVLG
B6: the “mAb neutralization potency (IC50 (M))” value in assay [6] was found to be 9.91e-11 M.

B7: mAb10956 (antibody, V domains shown)
VH: EVQLVESGGGLVQPGGSLRLSCAASGLTVSSNYMSWVRQAPGKGLEWVSVIYSGGSTFYADSVKGRFTISRDNSKNTLYLQMNSLRAEDTAVYYCARDLIKYGMDVWGQGTTVTVSS
VL: not shown
Take B7: the MFI in assay [2] came out at 15 MFI; in assay [3], 16 MFI; in assay [4] it was 16 MFI.

B8: mAb10914 (antibody, V domains shown)
VH: B7 VH with T28I, S31R, S35I, D72H, I100G, K101T, Y102G
VL: DIQLTQSPSFLSASVGDRVTITCWASQGISSYLAWYQQKPGKAPKLLIYAASTLQSGVPSRFSGSGSGTEFTLTISSLQPEDFATYYCQQLNSYPLTFGGGTKVEIKR
B8: the “Binding signal (MFI)” value in assay [5] stood at 19 MFI; in assay [1], 28 MFI.

B9: mAb10957 (antibody, V domains shown)
VH: B7 VH with L27V, Y79F, A87I, I100G, K101P
VL: DIQLTQSPSFLSASVGDRVTITCRASQGISSYLAWYQQKPGKAPKLLIYAASTLQSGVPSRFSGSGSGTQFILTISSLQPEDFATYYCQQLNSYPGFTFGPGTKVDIKR
On to B9, for which the MFI came to 15 MFI in assay [2], 16 MFI in assay [3] and 18 MFI in assay [4].

The values above are taken from US20220356230A1 (published 2022).
